From patent US20210063414A1, “METHODS FOR PREVENTING AND/OR TREATING BONE LOSS CONDITIONS BY MODULATING IRISIN” (Dana-Farber Cancer Institute, Inc., priority 2018, published 2021)

Tests used:
integrin αV/β3 = biological target: T1, integrin αV/β3 (Homo sapiens, UniProt P05106+P06756); experiment: FAK phosphorylation in HEK293T cells with forced expression of integrin αV/β3; type: cell-based; settings: HEK293T with integrin αV/β3, vitronectin-coated plates
T1 construct: expressed in transfected cells; host or cells: HEK293T
T1 sequence (P06756 31-889 limits assumed): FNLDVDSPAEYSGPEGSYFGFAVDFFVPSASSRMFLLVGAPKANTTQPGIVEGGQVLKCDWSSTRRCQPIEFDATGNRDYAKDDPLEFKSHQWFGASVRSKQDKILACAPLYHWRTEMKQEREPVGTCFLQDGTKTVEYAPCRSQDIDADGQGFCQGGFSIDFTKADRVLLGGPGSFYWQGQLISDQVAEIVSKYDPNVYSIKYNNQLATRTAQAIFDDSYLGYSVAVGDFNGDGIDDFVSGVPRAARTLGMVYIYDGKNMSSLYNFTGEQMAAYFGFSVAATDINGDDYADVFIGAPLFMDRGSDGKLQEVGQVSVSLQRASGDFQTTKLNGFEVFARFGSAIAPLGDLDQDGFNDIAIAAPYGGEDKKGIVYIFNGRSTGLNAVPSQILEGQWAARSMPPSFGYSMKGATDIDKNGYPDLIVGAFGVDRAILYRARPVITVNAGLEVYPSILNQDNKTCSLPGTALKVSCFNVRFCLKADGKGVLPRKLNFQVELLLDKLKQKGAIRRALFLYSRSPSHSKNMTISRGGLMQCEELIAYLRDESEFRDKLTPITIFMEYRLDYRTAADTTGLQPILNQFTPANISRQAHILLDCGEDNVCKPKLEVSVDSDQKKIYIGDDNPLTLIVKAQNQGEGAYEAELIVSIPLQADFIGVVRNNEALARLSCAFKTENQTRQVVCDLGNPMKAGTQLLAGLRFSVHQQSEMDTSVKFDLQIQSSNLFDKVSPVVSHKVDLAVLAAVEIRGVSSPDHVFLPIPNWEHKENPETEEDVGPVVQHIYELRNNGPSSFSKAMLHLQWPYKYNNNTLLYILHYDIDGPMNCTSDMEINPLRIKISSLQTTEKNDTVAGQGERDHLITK
T1 sequence (P06756 891-1048 partner limits assumed): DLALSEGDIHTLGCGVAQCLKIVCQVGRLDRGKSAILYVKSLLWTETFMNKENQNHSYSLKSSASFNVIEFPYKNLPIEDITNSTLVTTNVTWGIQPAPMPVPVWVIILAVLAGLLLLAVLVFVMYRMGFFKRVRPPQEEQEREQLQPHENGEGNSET
T1 sequence (P05106 27-788): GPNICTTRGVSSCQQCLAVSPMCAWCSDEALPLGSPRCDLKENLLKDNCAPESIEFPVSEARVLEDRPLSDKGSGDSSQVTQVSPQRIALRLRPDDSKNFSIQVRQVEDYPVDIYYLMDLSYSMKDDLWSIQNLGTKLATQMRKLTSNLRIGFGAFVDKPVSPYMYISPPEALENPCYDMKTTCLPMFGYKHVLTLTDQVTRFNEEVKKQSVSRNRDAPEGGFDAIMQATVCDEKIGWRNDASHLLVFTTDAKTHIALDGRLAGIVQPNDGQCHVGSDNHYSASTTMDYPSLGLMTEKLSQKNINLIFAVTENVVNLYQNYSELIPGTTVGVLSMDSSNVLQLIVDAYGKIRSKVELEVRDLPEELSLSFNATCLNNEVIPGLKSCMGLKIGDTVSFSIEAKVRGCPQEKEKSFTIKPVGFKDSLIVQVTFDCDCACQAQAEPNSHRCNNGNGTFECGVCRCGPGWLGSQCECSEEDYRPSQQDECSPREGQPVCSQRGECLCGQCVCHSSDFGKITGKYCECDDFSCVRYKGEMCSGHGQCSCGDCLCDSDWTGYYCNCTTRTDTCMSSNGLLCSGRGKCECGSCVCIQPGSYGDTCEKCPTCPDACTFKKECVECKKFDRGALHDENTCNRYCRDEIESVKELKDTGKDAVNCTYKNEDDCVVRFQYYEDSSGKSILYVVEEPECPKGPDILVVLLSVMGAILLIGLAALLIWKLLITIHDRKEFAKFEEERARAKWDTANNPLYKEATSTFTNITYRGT
Procedure: 100 nM irisin was incubated with 5 nM indicated his-tag integrins followed by immunoprecipitation using Ni-NTA agaroses. Precipitated integrins and co-precipitated irisin were analyzed by immunoblot analysis. […] HEK293T cells were seeded and incubated until 50% cell density. The cells were transfected with 0.1 μg plasmids of indicated integrins. After 48 hours, the cells were incubated with Freestyle293 medium for 3 hours and were treated with indicated concentration of irisin for 5 minutes. Cells were lysed to detect the indicated protein level using immunoblot analysis. […] MLO-Y4 cells were treated as described in FIG. 2D with addition of pretreatment of indicated antagonistic antibodies for 10 minutes. Cells were lysed to detect the indicated protein level using immunoblot analysis. […] Sclerostin mRNA level was analyzed by qRT-PCR. […]
100 nM irisin was incubated with 5 nM indicated his-tag integrins followed by immunoprecipitation using Ni-NTA agaroses. Precipitated integrins and co-precipitated irisin were analyzed by immunoblot analysis. […] Cells were treated and analyzed as FIG. 14B except using plasmids encoding integrin α5/β1 or integrin α11/β1 (FIG. 15C) integrin αV/β1(FIG. 15D). […]
(§1) Cells were harvested in RIPA buffer containing protease-inhibitor cocktail and phosphataseinhibitor cocktail. […] Protein levels were analyzed via western blot using indicated antibody. […]

integrin αV/β5 = biological target: T2, integrin αV/β5 (Homo sapiens, UniProt P06756+P18084); experiment: FAK phosphorylation in HEK293T cells with forced expression of integrin αV/β5; type: cell-based; settings: HEK293T with integrin αV/β5, vitronectin-coated plates
T2 construct: expressed in transfected cells; host or cells: HEK293T
T2 sequence (P06756 31-889 limits assumed): as the sequence (P06756 31-889 limits assumed) above
T2 sequence (P06756 891-1048 partner limits assumed): as the sequence (P06756 891-1048 partner limits assumed) above
T2 sequence (P18084 24-799): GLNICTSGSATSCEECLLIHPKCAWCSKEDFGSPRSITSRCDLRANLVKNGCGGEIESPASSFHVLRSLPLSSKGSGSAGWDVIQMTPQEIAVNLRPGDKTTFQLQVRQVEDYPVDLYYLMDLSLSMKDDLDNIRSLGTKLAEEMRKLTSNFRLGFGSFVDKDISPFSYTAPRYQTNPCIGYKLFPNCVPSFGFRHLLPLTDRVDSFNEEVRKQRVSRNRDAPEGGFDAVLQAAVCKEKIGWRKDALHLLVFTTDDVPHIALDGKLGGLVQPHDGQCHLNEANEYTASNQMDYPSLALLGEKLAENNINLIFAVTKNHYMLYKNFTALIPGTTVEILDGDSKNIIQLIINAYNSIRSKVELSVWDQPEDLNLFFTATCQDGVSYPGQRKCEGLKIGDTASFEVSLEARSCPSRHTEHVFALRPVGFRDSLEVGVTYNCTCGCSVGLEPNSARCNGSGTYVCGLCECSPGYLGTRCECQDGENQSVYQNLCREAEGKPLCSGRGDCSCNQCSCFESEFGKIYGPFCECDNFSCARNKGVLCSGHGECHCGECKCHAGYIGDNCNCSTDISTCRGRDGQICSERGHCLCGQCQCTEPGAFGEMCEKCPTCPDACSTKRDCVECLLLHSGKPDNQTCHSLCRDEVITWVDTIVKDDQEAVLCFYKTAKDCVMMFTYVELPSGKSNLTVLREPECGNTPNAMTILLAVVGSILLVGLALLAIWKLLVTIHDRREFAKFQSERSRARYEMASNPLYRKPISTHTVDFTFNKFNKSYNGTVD
Procedure: 100 nM irisin was incubated with 5 nM indicated his-tag integrins followed by immunoprecipitation using Ni-NTA agaroses. Precipitated integrins and co-precipitated irisin were analyzed by immunoblot analysis. […] HEK293T cells were seeded and incubated until 50% cell density. The cells were transfected with 0.1 μg plasmids of indicated integrins. After 48 hours, the cells were incubated with Freestyle293 medium for 3 hours and were treated with indicated concentration of irisin for 5 minutes. Cells were lysed to detect the indicated protein level using immunoblot analysis. […] MLO-Y4 cells were treated as described in FIG. 2D with addition of pretreatment of indicated antagonistic antibodies for 10 minutes. Cells were lysed to detect the indicated protein level using immunoblot analysis. […] MLO-Y4 cells were treated as described in FIG. 1B except with addition of the pretreatment of indicated antagonistic antibodies for 10 minutes. Sclerostin mRNA level was analyzed by qRT-PCR. Cyclophilin was used for house-keeping gene. […] The ribbon diagram is colored by HDX stabilization/destabilization. Percentages of deuterium differences are color-coded according to the smooth color gradient key at the bottom. Crystal structure of irisin dimer is from Protein Data Bank (PDB) (4 lsd) and a homology model of integrin β5 was built based on integrin β3 structure from PDB (4MMX).
100 nM irisin was incubated with 5 nM indicated his-tag integrins followed by immunoprecipitation using Ni-NTA agaroses. Precipitated integrins and co-precipitated irisin were analyzed by immunoblot analysis. […] HEK293T cells were seeded and incubated until 50% cell density. The cells were transfected with 0.1 μg plasmids of indicated integrins. After 48 hours, the cells were re-split to indicated dose of vitronectin-coated plates. Cells were incubated with culture medium for 3 hours. Cells were lysed to detect the indicated protein level using immunoblot analysis. FIG. 15C and FIG. 15D show the immunoblot data. Cells were treated and analyzed as FIG. 14B except using plasmids encoding integrin α5/β1 or integrin α11/β1 (FIG. 15C) integrin αV/β1(FIG. 15D).
MLO-Y4 cells were treated and analyzed as described in FIG. 5A with addition of pretreatment of control RGD peptide, cyclo RGDyK (cRGDyK), or SB273005. […] HEK293 cells were treated and analyzed as described in FIG. 14B except the treatment of different dose of cyclo RGDyK. […] 8 weeks old male mice were treated and analyzed as described in FIG. 5D except the additional group with co-injection of 1 mg/kg SB273005. […]
as §1

Vitronectin: a ligand for integrin αV family, positive control [reference compound]
phosphorylation of FAK (positive control) (integrin αV/β3): induced phosphorylation of FAK | phosphorylation of FAK (positive control) (integrin αV/β5): induced phosphorylation of FAK
